Results: patent publication EP1143253A1
Values belong to the substance of their own block, whether it stands above or below them.

What was measured:
[1] = target: Thy-1 on EL-4 mouse lymphoma cells (mouse) (UniProt P01831); assay: FACS, T24/37.1 on EL-4 cells after PI-PLC treatment, against untreated stained cells
[2] = target: Thy-1 on EL-4 mouse lymphoma cells (mouse) (UniProt P01831); assay: FACS, T24/37.1 on EL-4 cells after Pronase treatment, against untreated stained cells
[3] = target: human p97 (melanotransferrin), GPI-anchored membrane form (human) (UniProt P08582); assay: FACS on SK-MEL-28 cells; L235 hybridoma supernatant, goat anti-mouse IgG-FITC
UniProt P08582, sequence (P08582 20-709): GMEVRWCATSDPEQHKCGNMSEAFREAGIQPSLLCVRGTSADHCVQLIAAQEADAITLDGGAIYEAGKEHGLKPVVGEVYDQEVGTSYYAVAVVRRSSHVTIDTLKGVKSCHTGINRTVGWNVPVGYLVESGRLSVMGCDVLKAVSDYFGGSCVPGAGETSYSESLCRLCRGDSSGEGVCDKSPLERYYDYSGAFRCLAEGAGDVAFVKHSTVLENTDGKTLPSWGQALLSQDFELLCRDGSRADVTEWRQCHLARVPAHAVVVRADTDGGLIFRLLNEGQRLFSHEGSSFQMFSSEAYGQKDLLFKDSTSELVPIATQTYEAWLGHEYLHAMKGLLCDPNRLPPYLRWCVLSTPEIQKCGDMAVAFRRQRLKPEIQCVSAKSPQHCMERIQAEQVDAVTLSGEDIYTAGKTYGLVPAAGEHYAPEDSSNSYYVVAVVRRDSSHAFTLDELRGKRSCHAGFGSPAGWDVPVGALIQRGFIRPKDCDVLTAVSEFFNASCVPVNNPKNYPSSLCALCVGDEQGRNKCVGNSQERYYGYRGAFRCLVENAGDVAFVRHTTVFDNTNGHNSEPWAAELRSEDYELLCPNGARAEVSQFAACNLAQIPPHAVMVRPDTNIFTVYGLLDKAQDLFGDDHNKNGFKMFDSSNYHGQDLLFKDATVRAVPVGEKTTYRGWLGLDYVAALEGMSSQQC

[4] = target: human p97 (melanotransferrin), GPI-anchored membrane form (human) (UniProt P08582); assay: FACS on Sf9 cells infected with p97 B-2-1, pre-incubated with PI-PLC; L235 supernatant, goat anti-mouse IgG-FITC
[5] = target: human p97 (melanotransferrin), GPI-anchored membrane form (human) (UniProt P08582); assay: FACS, L235 on p97aWTBc3 cells after PI-PLC treatment, against untreated stained cells
[6] = target: human p97 (melanotransferrin), GPI-anchored membrane form (human) (UniProt P08582); assay: FACS on Sf9 cells infected with p97 B-1-1, pre-incubated with PI-PLC; L235 supernatant, goat anti-mouse IgG-FITC
[7] = target: human p97 (melanotransferrin), GPI-anchored membrane form (human) (UniProt P08582); assay: FACS on SK-MEL-28 cells pre-incubated with PI-PLC (60 min, 37 C), which removes p97; L235 supernatant, goat anti-mouse IgG-FITC
[8] = target: human p97 (melanotransferrin), GPI-anchored membrane form (human) (UniProt P08582); assay: FACS, L235 on SK-MEL-28 cells after Pronase treatment, against untreated stained cells
[9] = target: human p97 (melanotransferrin), GPI-anchored membrane form (human) (UniProt P08582); assay: FACS on Sf9 cells infected with p97 recombinant baculovirus p97 B-1-1; L235 supernatant, goat anti-mouse IgG-FITC
[10] = target: human p97 (melanotransferrin), GPI-anchored membrane form (human) (UniProt P08582); assay: FACS on Sf9 cells infected with p97 recombinant baculovirus p97 B-2-1; L235 supernatant, goat anti-mouse IgG-FITC
[11] = target: human p97 (melanotransferrin), GPI-anchored membrane form (human) (UniProt P08582); assay: FACS, L235 on p97aWTBc7 cells after PI-PLC treatment, against untreated stained cells
[12] = target: human p97 (melanotransferrin), GPI-anchored membrane form (human) (UniProt P08582); assay: FACS, L235 on SK-MEL-28 cells after PI-PLC treatment, against untreated stained cells
[13] = target: human transferrin receptor, membrane form (human) (UniProt P02786); assay: FACS, OKT9 on SK-MEL-28 cells after Pronase treatment, against untreated stained cells
UniProt P02786, sequence (P02786 whole entry): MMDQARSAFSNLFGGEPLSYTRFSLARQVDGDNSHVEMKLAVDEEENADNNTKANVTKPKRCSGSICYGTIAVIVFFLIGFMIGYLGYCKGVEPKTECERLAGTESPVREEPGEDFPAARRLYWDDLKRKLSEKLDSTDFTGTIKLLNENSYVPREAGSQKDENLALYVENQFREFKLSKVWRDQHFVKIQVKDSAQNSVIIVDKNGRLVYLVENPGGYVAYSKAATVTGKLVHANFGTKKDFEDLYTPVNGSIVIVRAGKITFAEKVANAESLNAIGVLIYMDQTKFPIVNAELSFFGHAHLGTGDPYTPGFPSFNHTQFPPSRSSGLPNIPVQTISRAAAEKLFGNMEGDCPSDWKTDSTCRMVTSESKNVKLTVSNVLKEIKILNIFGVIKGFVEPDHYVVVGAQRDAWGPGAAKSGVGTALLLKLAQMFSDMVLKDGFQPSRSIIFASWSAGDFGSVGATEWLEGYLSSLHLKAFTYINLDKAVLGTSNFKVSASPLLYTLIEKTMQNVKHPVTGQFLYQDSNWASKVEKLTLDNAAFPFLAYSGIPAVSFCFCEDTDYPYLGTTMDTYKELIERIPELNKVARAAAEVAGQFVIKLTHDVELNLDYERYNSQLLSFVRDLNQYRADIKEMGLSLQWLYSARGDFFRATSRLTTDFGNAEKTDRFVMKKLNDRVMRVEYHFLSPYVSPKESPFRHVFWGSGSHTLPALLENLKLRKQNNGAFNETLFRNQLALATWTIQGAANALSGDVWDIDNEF

[14] = target: human transferrin receptor, membrane form (human) (UniProt P02786); assay: FACS, OKT9 on SK-MEL-28 cells after PI-PLC treatment, against untreated stained cells

UniProt P01831, sequence (P01831 20-131): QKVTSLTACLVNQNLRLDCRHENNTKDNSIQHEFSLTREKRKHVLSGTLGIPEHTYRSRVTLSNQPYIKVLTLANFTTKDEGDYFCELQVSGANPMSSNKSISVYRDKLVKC

- Fluorescene Intensity (% of Control) [1]: 32.5 % of Control
- Fluorescene Intensity (% of Control) [2]: 136 % of Control
Substance: T24/37.1 MAb (anti-Thy-1) (antibody)

- FLUORESCENCE - converted linear value (converted linear value) [3]: 128
- FLUORESCENCE - converted linear value (converted linear value) [4]: 6.85
- Fluorescene Intensity (% of Control) [5]: 6.8 % of Control
- FLUORESCENCE - converted linear value (converted linear value) [6]: 5.74
- FLUORESCENCE - converted linear value (converted linear value) [7]: 4.52
- Fluorescene Intensity (% of Control) [8]: 82.6 % of Control
- FLUORESCENCE - converted linear value (converted linear value) [9]: 112
- FLUORESCENCE - converted linear value (converted linear value) [10]: 97.4
- Fluorescene Intensity (% of Control) [11]: 7.5 % of Control
- Fluorescene Intensity (% of Control) [12]: 10.8 % of Control
Substance: L235 anti-human p97 monoclonal antibody

- Fluorescene Intensity (% of Control) [13]: 15.9 % of Control
- Fluorescene Intensity (% of Control) [14]: 120 % of Control
Substance: OKT9 anti-human transferrin receptor monoclonal antibody
